The source of these data is publication PMC5303823, “DEK-targeting DNA aptamers as therapeutics for inflammatory arthritis”.

In the data set the target is T1, DEK (recombinant, baculovirus) (UniProt P35659 1-375).
T1 sequence: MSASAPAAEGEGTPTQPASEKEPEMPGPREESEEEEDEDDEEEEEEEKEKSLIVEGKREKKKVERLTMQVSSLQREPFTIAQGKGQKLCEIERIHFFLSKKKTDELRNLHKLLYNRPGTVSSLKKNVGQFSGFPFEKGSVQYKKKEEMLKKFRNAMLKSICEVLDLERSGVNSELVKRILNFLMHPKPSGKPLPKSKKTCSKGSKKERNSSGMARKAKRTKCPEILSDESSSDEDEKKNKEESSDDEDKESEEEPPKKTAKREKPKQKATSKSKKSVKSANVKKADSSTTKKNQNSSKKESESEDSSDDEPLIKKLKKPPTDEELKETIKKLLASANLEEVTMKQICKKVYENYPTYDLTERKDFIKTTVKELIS
Put plainly: pull-down, biotinylated aptamer on magnetic beads, immunoblot; two DEK concentrations, overnight 4 C; Selection and dot blot: 20 mM Tris pH 7.6, 100 mM NaCl, 5 mM MgCl2 (selection at room temperature; dot blot with 100 ug/ml salmon sperm DNA); pull-down: overnight at 4 C, PBS washes. The conditions noted are these: protein: recombinant; tags: His tag (SELEX resin); label: biotin (pull-down on magnetic beads).

B1: DTA-64 (ssDNA)
DNA: GGGGTTAAATATTCCCACATTGCCTGCGCCAGTACAAATAG
For B1, the binding result is “binds”.
